In patent US20250171537A1 (NOVIMMUNE, published 2025):

Target: T1, human CD47 (human, UniProt Q08722 19-139, limits assumed)
T1 construct: in the IHC study it is the native protein in frozen human tissues; also called Integrin-Associated-Protein; IAP
Test: immunohistochemistry, biotin-conjugated NI-1801 on frozen human tissues
Description: Sections of ovarian carcinoma (endometrioid adenocarcinoma) were used as positive controls.

T1 sequence (Q08722 19-139 limits assumed): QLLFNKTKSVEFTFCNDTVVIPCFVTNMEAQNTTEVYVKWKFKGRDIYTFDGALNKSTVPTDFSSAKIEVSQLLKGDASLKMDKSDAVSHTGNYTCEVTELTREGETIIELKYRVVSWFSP

binding result: binds
B1: NI-1801 (bispecific antibody Ka3×O38, anti-CD47 × anti-mesothelin) (bispecific antibody, human IgG1, kappa, lambda)
heavy: not shown
light 1: not shown
light 2: QPVLTQPASLSASPGASASLTCTLRSGINVRDYRIFWYQQKPGSPPQYLLRYKSASDKQQGSGVPSRFSGSKDASANAGILLISGLQSEDEADYYCMIWHHDSEGHAFVFGGGTKLTVLGQPKAAPSVTLFPPSSEELQANKATLVCLISDFYPGAVTVAWKADSSPVKAGVETTTPSKQSNNKYAASSYLSLTPEQWKSHRSYSCQVTHEGSTVEKTVAPTECS
notes: also called CD47×MSLN bispecific
